Tests used:
[1] = target: T1, PSMA expressed on target cells (PC3pip cells, high density; 22Rv1 cells, low density) (UniProt Q04609 1-750, limits assumed); assay: cell-based or functional assay
[2] = target: T1, PSMA expressed on target cells (PC3pip …); assay: cell-based or functional assay; remark: listed apart in the source
[3] = target: T1, PSMA expressed on target cells (PC3pip …); assay: cell-based or functional assay; remark: listed apart in the source
[4] = target: T1, PSMA expressed on target cells (PC3pip …); assay: cell-based or functional assay; remark: listed apart in the source
[5] = target: T1, PSMA expressed on target cells (PC3pip …); assay: cell-based or functional assay; remark: listed apart in the source
[6] = target: T1, PSMA expressed on target cells (PC3pip …); assay: cell-based or functional assay; remark: listed apart in the source
[7] = target: T1, PSMA expressed on target cells (PC3pip …); assay: cell-based or functional assay; remark: listed apart in the source
[8] = target: T2, biotin-labeled CD16a (Acro P/N CDA-H82E8) (human, UniProt P08637 17-208, biotin-labeled (site not stated)); assay: BLI, biotin-labeled CD16a on streptavidin biosensors, pH 7.4
T2 construct: also called recombinant human CD16a; immobilized CD16a
T2 sequence (P08637 17-208 limits assumed): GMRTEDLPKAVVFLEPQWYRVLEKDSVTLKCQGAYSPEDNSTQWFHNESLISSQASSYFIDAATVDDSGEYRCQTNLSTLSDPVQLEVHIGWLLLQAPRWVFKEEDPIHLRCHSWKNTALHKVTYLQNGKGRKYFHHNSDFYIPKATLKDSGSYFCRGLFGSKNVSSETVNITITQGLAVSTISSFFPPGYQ

[9] = target: T3, Biotinylated his-tagged human PSMA (human, UniProt Q04609 44-750, limits assumed, biotinylated (site not stated)); assay: BLI, biotinylated his-tagged human PSMA on streptavidin sensors, pH 5.7
T3 construct: also called immobilized PSMA; not shown: his tag
T3 sequence (Q04609 44-750 limits assumed): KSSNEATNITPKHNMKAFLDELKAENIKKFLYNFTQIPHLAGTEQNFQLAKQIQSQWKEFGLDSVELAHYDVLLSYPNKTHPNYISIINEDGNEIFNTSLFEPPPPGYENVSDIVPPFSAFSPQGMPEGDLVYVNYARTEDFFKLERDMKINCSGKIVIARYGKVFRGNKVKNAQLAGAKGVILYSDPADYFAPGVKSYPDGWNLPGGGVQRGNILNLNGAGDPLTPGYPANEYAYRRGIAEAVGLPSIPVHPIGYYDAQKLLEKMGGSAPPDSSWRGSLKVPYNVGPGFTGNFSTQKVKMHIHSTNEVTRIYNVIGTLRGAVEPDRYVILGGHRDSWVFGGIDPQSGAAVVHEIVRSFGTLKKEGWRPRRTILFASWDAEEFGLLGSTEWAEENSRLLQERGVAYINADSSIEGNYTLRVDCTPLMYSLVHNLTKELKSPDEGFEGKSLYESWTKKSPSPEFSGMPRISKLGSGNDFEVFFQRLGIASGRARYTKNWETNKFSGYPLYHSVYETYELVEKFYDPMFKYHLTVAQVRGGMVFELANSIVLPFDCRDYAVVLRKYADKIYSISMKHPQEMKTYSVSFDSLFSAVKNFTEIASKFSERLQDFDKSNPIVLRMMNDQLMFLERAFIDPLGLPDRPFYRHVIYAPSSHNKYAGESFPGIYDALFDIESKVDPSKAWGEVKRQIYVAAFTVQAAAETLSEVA

[10] = target: T3, Biotinylated his-tagged human PSMA; assay: BLI, biotinylated his-tagged human PSMA on streptavidin sensors, pH 7.4; covalent crosslinking
[11] = target: T3, Biotinylated his-tagged human PSMA; assay: BLI, biotinylated his-tagged human PSMA on streptavidin sensors, pH 7.4; covalent crosslinking; pH 7.4; apparent KD under covalent crosslinking
[12] = target: T3, Biotinylated his-tagged human PSMA; assay: BLI, biotinylated his-tagged human PSMA on streptavidin sensors, pH 7.4; non 1:1 binding (covalent crosslinking); pH 7.4; non 1:1 binding (crosslinking to PSMA)

T1 sequence (Q04609 whole entry): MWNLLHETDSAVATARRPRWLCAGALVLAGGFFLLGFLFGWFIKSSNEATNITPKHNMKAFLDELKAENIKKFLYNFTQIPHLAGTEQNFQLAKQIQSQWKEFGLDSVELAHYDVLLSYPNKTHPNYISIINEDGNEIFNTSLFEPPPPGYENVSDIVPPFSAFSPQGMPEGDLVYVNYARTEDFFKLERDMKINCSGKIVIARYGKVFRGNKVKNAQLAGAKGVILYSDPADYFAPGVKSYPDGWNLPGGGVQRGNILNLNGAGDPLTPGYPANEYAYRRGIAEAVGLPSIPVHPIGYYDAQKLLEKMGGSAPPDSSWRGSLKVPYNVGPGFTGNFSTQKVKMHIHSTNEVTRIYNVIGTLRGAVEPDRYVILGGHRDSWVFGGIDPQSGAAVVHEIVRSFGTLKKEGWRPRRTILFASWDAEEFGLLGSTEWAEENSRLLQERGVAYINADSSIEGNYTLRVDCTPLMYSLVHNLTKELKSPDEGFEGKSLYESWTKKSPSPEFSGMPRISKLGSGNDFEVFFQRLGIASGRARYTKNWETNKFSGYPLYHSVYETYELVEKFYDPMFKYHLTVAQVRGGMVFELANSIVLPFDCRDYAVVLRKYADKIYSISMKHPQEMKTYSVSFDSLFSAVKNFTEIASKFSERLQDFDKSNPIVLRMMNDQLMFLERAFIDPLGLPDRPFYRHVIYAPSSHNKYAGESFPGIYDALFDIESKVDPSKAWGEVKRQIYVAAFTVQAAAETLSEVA

EC50; ADCC luciferase reporter assay (Jurkat CD16a V158 reporter cells), PC3pip 24 h continuous [2]: 0.219 nM | EC50; ADCC reporter assay, PC3pip 4 h washout, 24 h endpoint [3]: 0.667 nM | EC50; ADCC reporter assay, 22Rv1 24 h continual [4]: 0.54 nM | EC50; ADCC reporter assay, 22Rv1 4 h washout, 24 h endpoint [5]: 3.19 nM | Kd [8]: 1.48 nM | koff [8]: 8.69e-05 s⁻¹ | kon [8]: 58800 M⁻¹ s⁻¹ | Kd [9]: ≤ 1140 nM | koff [9]: 0.0465 s⁻¹ | kon [9]: 40700 M⁻¹ s⁻¹ | koff [10]: < 1e-07 s⁻¹ | Kd [11]: < 1 nM | kon [12]: 12800 M⁻¹ s⁻¹
B1: C22 (C37-L3-C35) (bispecific antibody)
chain: EVQLVESGGGLVQPGESLTLSCVVAGSIFSFAMSWYRQAPGKERELVARIGSDDRVTYADSVKGRFTISRDNIKRTAGLQMNSLKPEDTAVYYCNAQTDLRDWTVREYWGQGTQVTVSSGGGGSGGGGSGGGGSGGGGSQVQLQESGGGSVEAGGSLRLSCARSGWPYSTYSMNWFRQAPGKEREAVAGISSTMSGIIFAESKAGQFTISQDNAKNTVYLQMNNLKPEDTAIYYCAARRXFSLSSSSDDFDYWGQGTQVTVSSAAAYPYDVPDYGSSPSTPPTPSPSTPPHHHHHH
modifications: FSY (fluorosulfonyltyrosine) at the position printed X in SEQ ID NO: 37 (position 101 of the anti-PSMA sdAb domain)
notes: anti-CD16a sdAb C37 - 4x(G4S) - anti-PSMA sdAb-FSY C35; entry holds HA tag, SP tag and His6; also called C22 (FSY); FSY-containing bispecific construct
fold potency against C25; NK cell-mediated killing of PC3pip cells, 5 hr incubation and washout [1]: 140 fold | fold potency against C25; NK cell-mediated killing of PC3pip cells, test article present throughout [1]: 106 fold | EC50 [nM]; primary human NK cell-mediated killing of PC3pip cells, no washout, 20 h incubation [6]: 0.066 nM | EC50 [nM]; NK cell-mediated killing of PC3pip cells, 5 h washout, 20 h incubation [7]: 0.188 nM

From patent US20250353926A1 (ENLAZA THERAPEUTICS, published 2025)
